Here are results for one molecule from US8920805B2, “Inhibition of tumor metastasis by anti-neuropilin 2 antibodies” (Genentech, Inc., priority 2007, dated 2014).

For the test, the system named is E 17.5 Hippocampal growth cones. As to the kind of experiment: Hippocampal neuronal growth cone collapse assay (Sema3F). The format is cell-based. To be noted: Anti-Nrp2^B 50 μg/ml; Nrp2 ECD 10 ug/ml. The method, then:
FIG. 17. […] (A) Images of E 17.5 Hippocampal growth cones stained with rhodamine conjugated phalloidin. Control growth cones show large actin rich structures at the tip of each axon, which are reduced with Sema3F treatment. […] In contrast, Nrp2 ECD (10 ug/ml) does block this collapse. (B) Quality control for anti-Nrp2 immunohistochemistry. […] This antibody was subsequently used for IHC on fresh frozen tumor sections. (Scale bar main images=**μm and for inset images=**μm.
Then, the ability of Anti-Nrp2^B to modulate semaphorin function was tested. […] Thus, Anti-Nrp2^B acts to block specific aspects of Nrp2 function, inhibiting VEGFC but not VEGF or Sema3F mediated cellular responses.

B1: Nrp2 ECD: Nrp2 extracellular domain protein, positive control for blocking Sema3F (protein, UniProt O60462 21-864, looked up)
extracellular domain: RGQPDPPCGGRLNSKDAGYITSPGYPQDYPSHQNCEWIVYAPEPNQKIVLNFNPHFEIEKHDCKYDFIEIRDGDSESADLLGKHCGNIAPPTIISSGSMLYIKFTSDYARQGAGFSLRYEIFKTGSEDCSKNFTSPNGTIESPGFPEKYPHNLDCTFTILAKPKMEIILQFLIFDLEHDPLQVGEGDCKYDWLDIWDGIPHVGPLIGKYCGTKTPSELRSSTGILSLTFHTDMAVAKDGFSARYYLVHQEPLENFQCNVPLGMESGRIANEQISASSTYSDGRWTPQQSRLHGDDNGWTPNLDSNKEYLQVDLRFLTMLTAIATQGAISRETQNGYYVKSYKLEVSTNGEDWMVYRHGKNHKVFQANNDATEVVLNKLHAPLLTRFVRIRPQTWHSGIALRLELFGCRVTDAPCSNMLGMLSGLIADSQISASSTQEYLWSPSAARLVSSRSGWFPRIPQAQPGEEWLQVDLGTPKTVKGVIIQGARGGDSITAVEARAFVRKFKVSYSLNGKDWEYIQDPRTQQPKLFEGNMHYDTPDIRRFDPIPAQYVRVYPERWSPAGIGMRLEVLGCDWTDSKPTVETLGPTVKSEETTTPYPTEEEATECGENCSFEDDKDLQLPSGFNCNFDFLEEPCGWMYDHAKWLRTTWASSSSPNDRTFPDDRNFLRLQSDSQREGQYARLISPPVHLPRSPVCMEFQYQATGGRGVALQVVREASQESKLLWVIREDQGGEWKHGRIILPSYDMEYQIVFEGVIGKGRSGEIAIDDIRISTDVPLENCMEPISAFAGENFKVDIPEIHEREGYEDEIDDEYEVDWSNSSSATSGSGAPSTDKEKSWLYTLDP
modifications: extracellular domain
As for B1, the “semaphorin (Sema3F) induced growth cone collapse” value is “inhibited this collapse completely”.
